# Reference: patent US20200216522A1 (DENALI THERAPEUTICS, published 2020)
# Target: T1, full-length human Tau (Tau441; 2N4R), recombinant (human, UniProt P10636 1-758)
# T1 construct: made in E. coli, His6-Smt3 tag removed; biotinylated through amines for Octet and phage work; also called r-Tau; recombinant Tau
# Experiment: SPR Biacore
# Method: IgG was purified with protein A affinity chromatography. The affinity of each hulC7 IgG variant for r-Tau was determined by surface plasmon resonance using a Biacore™ T200 instrument. Biacore™ Series S CM5 sensor chips were immobilized with monoclonal mouse anti-human IgG (Fc) antibody (Human antibody capture kit from GE Healthcare). Serial 3-fold dilutions of each hulC7 variant were injected at a flow rate of […]. Each sample was analyzed with 3-minute association and 10-minute dissociation. After each injection, the chip was regenerated using 3 M MgCl₂. Binding response was corrected by subtracting the RU from a flow cell capturing an irrelevant IgG at similar density. A 1:1 Languir model of simultaneous fitting of kₒₙ and koff was used for kinetics analysis.
# A further round of affinity maturation was performed by mutating certain amino acids in selected CDR-H1, CDR-L1, and CDR-L3 sequences from Table 9A, as well as the sequence of CDR-H2 (SEQ ID NO:23) of hulC7.v2. Sequence changes were identified in each CDR (Table 9B). Binding affinities were evaluated using Biacore™ (Table 10B).
# T1 sequence (P10636 other isoform, or with tags, fused parts or gaps limits assumed): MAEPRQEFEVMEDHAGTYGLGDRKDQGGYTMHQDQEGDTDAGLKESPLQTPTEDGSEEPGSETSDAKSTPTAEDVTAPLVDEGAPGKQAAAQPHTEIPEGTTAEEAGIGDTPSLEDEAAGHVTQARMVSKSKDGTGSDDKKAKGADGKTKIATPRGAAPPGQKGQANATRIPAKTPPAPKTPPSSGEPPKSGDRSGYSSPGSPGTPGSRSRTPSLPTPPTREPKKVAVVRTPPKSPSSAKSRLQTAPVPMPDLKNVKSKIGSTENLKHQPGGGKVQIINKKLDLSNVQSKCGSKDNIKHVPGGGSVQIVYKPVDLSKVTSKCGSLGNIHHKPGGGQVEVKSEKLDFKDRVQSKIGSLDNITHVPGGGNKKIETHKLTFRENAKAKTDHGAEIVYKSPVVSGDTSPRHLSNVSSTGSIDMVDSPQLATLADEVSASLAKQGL
Kd [nM],koff [s⁻¹],kon [M⁻¹ s⁻¹],Binder
1.3,0.000183,141000,"Clone with H1_2-1 (antibody, V domains shown, based on hu1C7.v2) VH: EVQLLESGGGLVQPGGSLRLSCAASGFTFSSVGTSWVRQAPGKGLEWVASISGDGGSYIHYADSVKGRFTISRDNSKNTLYLQMNSLRAEDTAVYYCARLPYWGQGTLVTVSS VL: DIVMTQSPDSLAVSLGERATINCKSSQSLLNSGNQKNYLTWYQQKPGQPPKLLIYWASTRESGVPDRFSGSGSGTDFTLTISSLQAEDVAVYYCQQYNSYPLTFGQGTKVEIKR"
9.68,0.00408,422000,"Clone with H2_3 (antibody, V domains shown, based on hu1C7.v2) VH: EVQLLESGGGLVQPGGSLRLSCAASGFTFSSYGMSWVRQAPGKGLEWVASISGSGGSYIHYADSVKGRFTISRDNSKNTLYLQMNSLRAEDTAVYYCARLPYWGQGTLVTVSS VL: DIVMTQSPDSLAVSLGERATINCKSSQSLLNSGNQKNYLTWYQQKPGQPPKLLIYWASTRESGVPDRFSGSGSGTDFTLTISSLQAEDVAVYYCQQYNSYPLTFGQGTKVEIKR"
0.477,9.39e-05,197000,"Clone with H1_2-3 (antibody, V domains shown, based on hu1C7.v2) VH: EVQLLESGGGLVQPGGSLRLSCAASGFTFSQVGTSWVRQAPGKGLEWVASISGDGGSYIHYADSVKGRFTISRDNSKNTLYLQMNSLRAEDTAVYYCARLPYWGQGTLVTVSS VL: DIVMTQSPDSLAVSLGERATINCKSSQSLLNSGNQKNYLTWYQQKPGQPPKLLIYWASTRESGVPDRFSGSGSGTDFTLTISSLQAEDVAVYYCQQYNSYPLTFGQGTKVEIKR"
0.578,0.000144,249000,"Clone with H1_2-5 (antibody, V domains shown, based on hu1C7.v2) VH: EVQLLESGGGLVQPGGSLRLSCAASGFTFSKVGTSWVRQAPGKGLEWVASISGDGGSYIHYADSVKGRFTISRDNSKNTLYLQMNSLRAEDTAVYYCARLPYWGQGTLVTVSS VL: DIVMTQSPDSLAVSLGERATINCKSSQSLLNSGNQKNYLTWYQQKPGQPPKLLIYWASTRESGVPDRFSGSGSGTDFTLTISSLQAEDVAVYYCQQYNSYPLTFGQGTKVEIKR"
3.81,0.00126,331000,"Clone with H1_4-4 (antibody, V domains shown, based on hu1C7.v2) VH: EVQLLESGGGLVQPGGSLRLSCAASGFRFSSPGMSWVRQAPGKGLEWVASISGDGGSYIHYADSVKGRFTISRDNSKNTLYLQMNSLRAEDTAVYYCARLPYWGQGTLVTVSS VL: DIVMTQSPDSLAVSLGERATINCKSSQSLLNSGNQKNYLTWYQQKPGQPPKLLIYWASTRESGVPDRFSGSGSGTDFTLTISSLQAEDVAVYYCQQYNSYPLTFGQGTKVEIKR"
0.837,0.000144,172000,"Clone with H1_4-1 (antibody, V domains shown, based on hu1C7.v2) VH: EVQLLESGGGLVQPGGSLRLSCAASGFTFSGPGMSWVRQAPGKGLEWVASISGDGGSYIHYADSVKGRFTISRDNSKNTLYLQMNSLRAEDTAVYYCARLPYWGQGTLVTVSS VL: DIVMTQSPDSLAVSLGERATINCKSSQSLLNSGNQKNYLTWYQQKPGQPPKLLIYWASTRESGVPDRFSGSGSGTDFTLTISSLQAEDVAVYYCQQYNSYPLTFGQGTKVEIKR"
0.591,0.000163,276000,"Clone with H1_4-5 (antibody, V domains shown, based on hu1C7.v2) VH: EVQLLESGGGLVQPGGSLRLSCAASGFRFSGYGMSWVRQAPGKGLEWVASISGDGGSYIHYADSVKGRFTISRDNSKNTLYLQMNSLRAEDTAVYYCARLPYWGQGTLVTVSS VL: DIVMTQSPDSLAVSLGERATINCKSSQSLLNSGNQKNYLTWYQQKPGQPPKLLIYWASTRESGVPDRFSGSGSGTDFTLTISSLQAEDVAVYYCQQYNSYPLTFGQGTKVEIKR"
0.502,0.000203,404000,"Clone with H1_4-3 (antibody, V domains shown, based on hu1C7.v2) VH: EVQLLESGGGLVQPGGSLRLSCAASGFMFSGPGMSWVRQAPGKGLEWVASISGDGGSYIHYADSVKGRFTISRDNSKNTLYLQMNSLRAEDTAVYYCARLPYWGQGTLVTVSS VL: DIVMTQSPDSLAVSLGERATINCKSSQSLLNSGNQKNYLTWYQQKPGQPPKLLIYWASTRESGVPDRFSGSGSGTDFTLTISSLQAEDVAVYYCQQYNSYPLTFGQGTKVEIKR"
8.28,0.00369,446000,"Clone with H2_1 (antibody, V domains shown, based on hu1C7.v2) VH: EVQLLESGGGLVQPGGSLRLSCAASGFTFSSYGMSWVRQAPGKGLEWVASISGEGGSYIHYADSVKGRFTISRDNSKNTLYLQMNSLRAEDTAVYYCARLPYWGQGTLVTVSS VL: DIVMTQSPDSLAVSLGERATINCKSSQSLLNSGNQKNYLTWYQQKPGQPPKLLIYWASTRESGVPDRFSGSGSGTDFTLTISSLQAEDVAVYYCQQYNSYPLTFGQGTKVEIKR"
0.759,9.71e-05,128000,"Clone with H1_2-2 (antibody, V domains shown, based on hu1C7.v2) VH: EVQLLESGGGLVQPGGSLRLSCAASGFTFSMVGTSWVRQAPGKGLEWVASISGDGGSYIHYADSVKGRFTISRDNSKNTLYLQMNSLRAEDTAVYYCARLPYWGQGTLVTVSS VL: DIVMTQSPDSLAVSLGERATINCKSSQSLLNSGNQKNYLTWYQQKPGQPPKLLIYWASTRESGVPDRFSGSGSGTDFTLTISSLQAEDVAVYYCQQYNSYPLTFGQGTKVEIKR"
0.416,0.000128,308000,"Clone with H1_4-2 (antibody, V domains shown, based on hu1C7.v2) VH: EVQLLESGGGLVQPGGSLRLSCAASGFQFSGPGMSWVRQAPGKGLEWVASISGDGGSYIHYADSVKGRFTISRDNSKNTLYLQMNSLRAEDTAVYYCARLPYWGQGTLVTVSS VL: DIVMTQSPDSLAVSLGERATINCKSSQSLLNSGNQKNYLTWYQQKPGQPPKLLIYWASTRESGVPDRFSGSGSGTDFTLTISSLQAEDVAVYYCQQYNSYPLTFGQGTKVEIKR"
1.41,0.000151,107000,"Clone with H1_2-4 (antibody, V domains shown, based on hu1C7.v2) VH: EVQLLESGGGLVQPGGSLRLSCAASGFTFSLVGTSWVRQAPGKGLEWVASISGDGGSYIHYADSVKGRFTISRDNSKNTLYLQMNSLRAEDTAVYYCARLPYWGQGTLVTVSS VL: DIVMTQSPDSLAVSLGERATINCKSSQSLLNSGNQKNYLTWYQQKPGQPPKLLIYWASTRESGVPDRFSGSGSGTDFTLTISSLQAEDVAVYYCQQYNSYPLTFGQGTKVEIKR"
6.4,0.00309,484000,"Clone with H2_4 (antibody, V domains shown, based on hu1C7.v2) VH: EVQLLESGGGLVQPGGSLRLSCAASGFTFSSYGMSWVRQAPGKGLEWVASISGDAGSYIHYADSVKGRFTISRDNSKNTLYLQMNSLRAEDTAVYYCARLPYWGQGTLVTVSS VL: DIVMTQSPDSLAVSLGERATINCKSSQSLLNSGNQKNYLTWYQQKPGQPPKLLIYWASTRESGVPDRFSGSGSGTDFTLTISSLQAEDVAVYYCQQYNSYPLTFGQGTKVEIKR"
9.11,0.00378,415000,"Clone with H2_2 (antibody, V domains shown, based on hu1C7.v2) VH: EVQLLESGGGLVQPGGSLRLSCAASGFTFSSYGMSWVRQAPGKGLEWVASISGTGGSYIHYADSVKGRFTISRDNSKNTLYLQMNSLRAEDTAVYYCARLPYWGQGTLVTVSS VL: DIVMTQSPDSLAVSLGERATINCKSSQSLLNSGNQKNYLTWYQQKPGQPPKLLIYWASTRESGVPDRFSGSGSGTDFTLTISSLQAEDVAVYYCQQYNSYPLTFGQGTKVEIKR"
